For the experiment, the target named is T1, HLA-A*0201 (human).
T1 construct: MHC monomer first loaded with a UV-sensitive peptide that is cleaved and exchanged for the test peptide; captured on streptavidin; also called peptide-receptive MHC molecules
Nature of the experiment: UV-ligand exchange, streptavidin/anti-b2m sandwich ELISA. The source says: Candidate peptides for the vaccines according to the present invention were further tested for immunogenicity by in vitro priming assays. The individual peptide-MHC complexes required for these assays were produced by UV-ligand exchange, where a UV-sensitive peptide is cleaved upon UV-irradiation, and exchanged with the peptide of interest as analyzed. Only peptide candidates that can effectively bind and stabilize the peptide-receptive MHC molecules prevent dissociation of the MHC complexes. To determine the yield of the exchange reaction, an ELISA was performed based on the detection of the light chain (β2m) of stabilized MHC complexes.
96 well MAXISorp plates (NUNC) were coated over night with 2ug/ml streptavidin in PBS at room temperature, washed 4× and blocked for 30 min at 37° C. in 2% BSA containing blocking buffer. Refolded HLAA*0201/MLA-001 monomers served as standards, covering the range of 8-500 ng/ml. Peptide-MHC monomers of the UV-exchange reaction were diluted 100 fold in blocking buffer. Samples were incubated for 1 h at 37° C., washed four times, incubated with 2ug/ml HRP conjugated anti-β2m for 1 h at 37° C., washed again and detected with TMB solution that is stopped with […]. Absorption was measured at 450 nm.
(In general: ELISA stands for enzyme-linked immunosorbent assay.)
As for SLHFLILYV (synthetic peptide from ATP2A1, ATP2A2) [ATP-001], the “Average exchange yield in %” value worked out at 19%.
For the molecule KIQEMQHFL (synthetic peptide from MMP12) [MMP12-003], the “Average exchange yield in %” value was determined as 57%.
In the case of NLLAEIHGV (synthetic peptide from DPYSL4) [DPYSL4-001], the “Average exchange yield in %” value stood at 77%.
Turning to YLAPFLRNV (synthetic peptide from CNOT1) [CNOT1-001], the “Average exchange yield in %” value is 57%.
For the molecule ILVSWLPRL (synthetic peptide from NET1) [NET1-001], the “Average exchange yield in %” value was 82%.
KIQEILTQV (synthetic peptide from IGF2BP3) [IGF2BP3-001]: the “Average exchange yield in %” value is 46%.
For the molecule SLIDADPYL (synthetic peptide from CCNA2) [CCNA2-001], the “Average exchange yield in %” value came to 54%.
In the case of SLLPVDIRQYL (synthetic peptide from STAT2) [STAT2-001], the “Average exchange yield in %” value came out at 69%.
As to ALYGRLEVV (synthetic peptide from ANKS1A) [ANKS1A-001], the “Average exchange yield in %” value came to 78%.
With RVLPPSALQSV (synthetic peptide from AURKB) [AURKB-001], the “Average exchange yield in %” value was 54%.
Next, SLAGDVALQQL (synthetic peptide from NCAPD2) [NCAPD2-001]: 76%.
For the molecule VLAPLFVYL (synthetic peptide from FZD1, FZD2, FZD7) [FZD-001], the “Average exchange yield in %” value worked out at 52%.
As to VLLPVEVATHYL (synthetic peptide from SLC34A2) [SLC34A2-001], the “Average exchange yield in %” value stood at 51%.
AMATESILHFA (synthetic peptide from PI4KA) [PI4KA-001]: the “Average exchange yield in %” value was 51%.
With TLSSIKVEV (synthetic peptide from MXRA5) [MXRA5-001], the “Average exchange yield in %” value turned out to be 57%.
Next, TVAEVIQSV (synthetic peptide from KIF26B) [KIF26B-001]: 68%; ILFPDIIARA (synthetic peptide from MAGEF1) [MAGEF1-001]: 83%; SISDVIAQV (synthetic peptide from ANKH) [ANKH-001]: 52%.
Turning to AILDTLYEV (synthetic peptide from PLEKHA8) [PLEKHA8-001], the “Average exchange yield in %” value came to 47%.
Regarding KLFGEKTYL (synthetic peptide from SERPINB3) [SERPINB3-001], the “Average exchange yield in %” value was 47%.
Regarding SLLESNKDLLL (synthetic peptide from SLC3A2) [SLC3A2-001], the “Average exchange yield in %” value came to 56%.
Turning to HLLEDIAHV (synthetic peptide from NEFH) [NEFH-001], the “Average exchange yield in %” value was 50%.
As for SLAPAGVIRV (synthetic peptide from TLX3) [TLX3-001], the “Average exchange yield in %” value turned out to be 70%.
In the case of AMSSKFFLV (synthetic peptide from WNT5A) [WNT5A-001], the “Average exchange yield in %” value amounted to 37%.
As to ILFEINPKL (synthetic peptide from ABCA13) [ABCA13-001], the “Average exchange yield in %” value is 93%.
Next, FLHHLEIEL (synthetic peptide from ITGA11) [ITGA11-001]: 53%.
Turning to TLISRLPAV (synthetic peptide from RCC1) [RCC1-001], the “Average exchange yield in %” value was 77%.
On to VLSVVEVTL (synthetic peptide from RNF213) [RNF213-001], for which the “Average exchange yield in %” value was 84%.
As to SLYDNQITTV (synthetic peptide from SLIT1, SLIT2) [SLI-001], the “Average exchange yield in %” value was 47%.
As to AMLAVLHTV (synthetic peptide from C12orf44) [C12orf44-001], the “Average exchange yield in %” value came out at 34%.
For SLVAVELEKV (synthetic peptide from COG4) [COG4-001], the “Average exchange yield in %” value came out at 57%.
For KLAVALLAA (synthetic peptide from IL8) [IL8-001], the “Average exchange yield in %” value amounted to 41%.
For SLLAQNTSWLL (synthetic peptide from THY1) [THY1-001], the “Average exchange yield in %” value is 65%.
The value for VVDKTLLLV (synthetic peptide from C11orf24) [C11orf24-001] was 47%; that for KVLEILHRV (synthetic peptide from HERC4) [HERC4-001] was 61%; that for KIVDFSYSV (synthetic peptide from BUB1B) [BUB1B-001] was 59%.
Consider ALANQKLYSV (synthetic peptide from MDN1) [MDN1-001], for which the “Average exchange yield in %” value came to 67%.
TLTNIIHNL (synthetic peptide from ORMDL1) [ORMDL1-002]: the “Average exchange yield in %” value was 61%.
NLIEKSIYL (synthetic peptide from DST) [DST-001]: the “Average exchange yield in %” value amounted to 50%.
For the molecule SMSGYDQVL (synthetic peptide from HNRNPH1, HNRNPH2) [HNRNPH-001], the “Average exchange yield in %” value stood at 26%.
For the molecule YVYQNNIYL (synthetic peptide from FAP) [FAP-003], the “Average exchange yield in %” value was determined as 31%.
GLYPDAFAPV (synthetic peptide from ELANE) [ELANE-001]: the “Average exchange yield in %” value worked out at 62%.
Consider GLAEDIDKGEV (synthetic peptide from EEF2) [EEF2-002], for which the “Average exchange yield in %” value worked out at 31%.
KLDETNNTL (synthetic peptide from DST) [DST-002]: the “Average exchange yield in %” value amounted to 59%.
As for SLWGGDVVL (synthetic peptide from VPS13B) [VPS13B-001], the “Average exchange yield in %” value was determined as 63%.
As for GLTDNIHLV (synthetic peptide from MXRA5) [MXRA5-002], the “Average exchange yield in %” value is 56%.
Next, ALWEKNTHL (synthetic peptide from CEP250) [CEP250-002]: 70%.
Turning to FLIPIYHQV (synthetic peptide from ACACA) [ACACA-001], the “Average exchange yield in %” value was 61%.
Consider KIYNEFISV (synthetic peptide from RGS4) [RGS4-001], for which the “Average exchange yield in %” value worked out at 49%.
Consider ALASVIKEL (synthetic peptide from IFT81) [IFT81-001], for which the “Average exchange yield in %” value was 57%.
On to AMFENFVSV (synthetic peptide from NCBP1) [NCBP1-001], for which the “Average exchange yield in %” value is 65%.
Next, ALVDHTPYL (synthetic peptide from VCAN) [VCAN-002]: 49%; KLSWDLIYL (synthetic peptide from CERCAM) [CERC-001]: 62%; KLLEYIEEI (synthetic peptide from HMMR) [HMMR-001]: 49%.
As for ILMGTELTQV (synthetic peptide from OLFM1) [OLFM1-001], the “Average exchange yield in %” value came out at 48%.
In the case of YLPHAPPFA (synthetic peptide from JUNB) [JUNB-001], the “Average exchange yield in %” value was 51%.
In the case of ILQDRLNQV (synthetic peptide from CDC6) [CDC6-001], the “Average exchange yield in %” value turned out to be 48%.
Next, SILTIEDGIFEV (synthetic peptide from HSPA2, HSPA8) [HSP-002]: 47%; FQYDHEAFL (synthetic peptide from RCN1, RCN3) [RCN1-001]: 75%.
On to ALYDSVILL (synthetic peptide from DIO2) [DIO2-001], for which the “Average exchange yield in %” value was determined as 50%.
For TVIGFLLPFA (synthetic peptide from P2RY6) [P2RY6-001], the “Average exchange yield in %” value was found to be 91%.
In the case of AIDGNNHEV (synthetic peptide from GFPT2) [GFPT2-001], the “Average exchange yield in %” value was 43%.

The values above are taken from patent US20250066422A1 (published 2025).
